Laboratory results reported in US20250154268A1 (NONA BIOSCIENCES SUZHOU, published 2025).
Read-outs that look alike come from different tables or passages of the source. Blank lines part the entries; values can stand above or below the binder they belong to.

Legend:
[1] = target: T1, human CD25 (human, UniProt P01589 22-272); assay: flow cytometry, SU-DHL-1 cells
T1 construct: whole, on cells; Always presented on cells; also called huCD25; IL2Rα
T1 sequence (looked up): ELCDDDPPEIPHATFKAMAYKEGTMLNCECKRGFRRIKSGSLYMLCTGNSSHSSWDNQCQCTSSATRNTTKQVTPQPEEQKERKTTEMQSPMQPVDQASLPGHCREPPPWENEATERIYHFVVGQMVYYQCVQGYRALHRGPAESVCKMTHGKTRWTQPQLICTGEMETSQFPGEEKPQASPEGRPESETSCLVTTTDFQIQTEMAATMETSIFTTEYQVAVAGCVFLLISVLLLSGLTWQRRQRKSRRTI
Experimental: (§1) Briefly, the CHOK1-huCD25 cells and HEK293-cynoCD25 cells were digested, the SU-DHL-1 cells, Karpas299 cells, Treg cells and Teff cells were collected, and the cells were resuspended in PBS containing 2% BSA. The cells were adjusted to a cell density of 1×10⁶ cells/mL, respectively. […] The cells were incubated at 4° C. for 1 hour in the dark. After the incubation, the cells were rinsed twice by adding pre-chilled PBS containing 2% BSA at 100 μL/well, and centrifuged at 500 g at 4° C. for 5 minutes, and the supernatant was discarded. […] The cells were washed twice by adding pre-chilled PBS containing 2% BSA at 100 μL/well, and centrifuged at 500 g at 4° C. for 5 minutes, and the supernatant was discarded. Finally, the cells were resuspended in pre-chilled PBS containing 2% BSA at 200 μL/well, and the fluorescence signal values were read using a BD CantoII flow cytometer.

[2] = target: T1, human CD25; assay: flow cytometry, Karpas299 cells
Experimental: as §1

[3] = target: T2, cynomolgus monkey CD25 (cynomolgus monkey, UniProt H6WS54 22-272); assay: flow cytometry, HEK293-cynoCD25 cells
T2 construct: whole, on cells; also called cynoCD25
T2 sequence: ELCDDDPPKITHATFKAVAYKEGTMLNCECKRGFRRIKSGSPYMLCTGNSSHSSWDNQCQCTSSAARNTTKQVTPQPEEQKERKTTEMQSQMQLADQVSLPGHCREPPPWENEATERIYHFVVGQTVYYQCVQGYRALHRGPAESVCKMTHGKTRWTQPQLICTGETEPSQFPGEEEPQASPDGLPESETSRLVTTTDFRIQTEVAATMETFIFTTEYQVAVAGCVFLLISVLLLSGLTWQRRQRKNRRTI
Experimental: as §1

[4] = target: T1, human CD25; assay: flow cytometry, SU-DHL-1 cells; remark: listed apart in the source
Experimental: as §1

[5] = target: T1, human CD25; assay: flow cytometry, Karpas299 cells; remark: listed apart in the source
[6] = target: T2, cynomolgus monkey CD25; assay: flow cytometry, HEK293-cynoCD25 cells; remark: listed apart in the source
Experimental: as §1

[7] = target: T1, human CD25; assay: flow cytometry, SU-DHL-1 cells; remark: listed apart in the source
Experimental: as §1

[8] = target: T1, human CD25; assay: flow cytometry, Karpas299 cells; remark: listed apart in the source
[9] = target: T1, human CD25; assay: flow cytometry, SU-DHL-1 cells; remark: listed apart in the source
Experimental: as §1

[10] = target: T1, human CD25; assay: flow cytometry, Karpas299 cells; remark: listed apart in the source
Experimental: as §1

[11] = target: T1, human CD25; assay: flow cytometry, CHOK1-huCD25 cells
Experimental: as §1

[12] = target: T2, cynomolgus monkey CD25; assay: flow cytometry, HEK293-cynoCD25 cells; remark: listed apart in the source
Experimental: as §1

B1: PR006932 (antibody, human IgG1, kappa, V domains shown)
VH: QVQLVQSGAEVKKPGASLKVSCKASGYTFTGYYMHWVRQAPGQGLEWMGWINSNSGDKRYAQKFQGRVTVTRDTSISTAYMELSRLRSDDTAVYYCAREGAGDAFDFWGQGTMVIVSS
VL: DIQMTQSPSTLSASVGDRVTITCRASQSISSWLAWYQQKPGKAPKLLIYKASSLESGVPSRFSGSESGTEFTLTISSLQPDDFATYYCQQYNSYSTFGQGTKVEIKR
notes: Fully human recombinant IgG1, kappa; also called 184B11A4
EC50 [1]: 3.51 nM
Maximum MFI [1]: 34400 MFI
EC50 [2]: 2.91 nM
Maximum MFI [2]: 12000 MFI
EC50 [3]: 3.92 nM
Maximum MFI [3]: 151000 MFI

B3: PR006984 (antibody, human IgG1, kappa, V domains shown)
VH: QVHLVESGGGVVQPGRSLRLSCAASGFTFSKYDMHWVRQAPGKGLEWVAVVWFDGINKSYIDSVRGRFTISRDNSKSTLYLQMNSLRDDDTAVYYCAREGVGDAFDIWGQGAMVTVSS
VL: DIQMTQSPSTLSASVGDRVTITCRASQSISSWLAWYQQKPGKAPKLLIYKASSLESGVPSRFSGSESGTEFTLTITSLQPNDFATYYCQQYNSYSTFGQGTRLEIKR
notes: Fully human recombinant IgG1, kappa; also called 180F6E8
EC50 [7]: 6 nM
Maximum MFI [7]: 35300 MFI
EC50 [8]: 55 nM
Maximum MFI [8]: 8720 MFI

B7: PR006930 (antibody, human IgG1, kappa, V domains shown)
VH: EVQLLESGGGLVQPGGSLRLSCAASEFTFSSYAMSWVRQAPGKGLEWVSTISGSGGNTYYADSVEGRFTISRDNSKNTLYLQMNSLRAEDTAVYYCAKEAYSSSWYEYFQHWGQGTLVTVSS
VL: EIVMTQSPATLSVSPGERATLSCRASQSVSDTLAWYQQKPGQAPRLLIYGASTRATGIPARFSGSGSGTEFTLTISSLQSEDFAVYYCQQYNYWPLTFGGGTKVEIRR
notes: Fully human recombinant IgG1, kappa; also called 170H1E12
EC50 [1]: 2.2 nM
Maximum MFI [1]: 32000 MFI
EC50 [2]: 2.12 nM
Maximum MFI [2]: 16400 MFI
EC50 [3]: 3.25 nM
Maximum MFI [3]: 146000 MFI

B8: PR005435 (antibody, human IgG1, kappa, V domains shown)
VH: QVQLQQSGPGLVKPSQTLSLTCAVSGDRVSNINAAWNWIRQSPSRGLEWLGRTYYRSKWYNDYAVSVKSRISINLDTSKDQFSLQLNPVTPEDTAVYYCARDPWEAFDYWGQGTLVTVSS
VL: EIVMTQSPATLSVSPGERATLSCRASQSVSSNLAWYQQKPGQAPRLLIYAASTRATGIPARFSGSGSGTEFTLTISSLQSEDFAVYFCQQYNDWSITFGQGTRLEIKR
notes: Fully human recombinant IgG1, kappa; Clone No. 308B6F9 is printed for both PR005433 and PR005435; also called 308B6F9
EC50 [9]: 97.6 nM
Maximum MFI [9]: 19500 MFI
EC50 [10]: 65.4 nM
Maximum MFI [10]: 16200 MFI
EC50 [11]: 15.2 nM
Maximum MFI [11]: 31700 MFI
EC50 [12]: 4.15 nM
Maximum MFI [12]: 154000 MFI

More lines, now with the values ahead:

EC50 [4]: 1.36 nM
Maximum MFI [4]: 32800 MFI
EC50 [5]: 30 nM
Maximum MFI [5]: 9510 MFI
EC50 [6]: 1.63 nM
Maximum MFI [6]: 31500 MFI
B2: PR008014 (antibody, human IgG1, kappa, V domains shown)
VH: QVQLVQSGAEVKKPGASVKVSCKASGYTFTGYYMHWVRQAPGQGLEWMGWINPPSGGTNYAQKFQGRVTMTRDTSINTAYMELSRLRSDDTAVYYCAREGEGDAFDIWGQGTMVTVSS
VL: DFQMTQSPSTLSASVGDRVTITCRASQSISSWLAWYQQKPGKAPKLLIYEASSLKSGVPSRFSGSESGTEFTLTISSLQPDDFATYYCHQYLSYSTFGQGTKVEIKR
notes: PTM variant of PR006931 (VH: N54P, S60Y); human IgG1

EC50 [4]: 4.02 nM
Maximum MFI [4]: 34500 MFI
EC50 [5]: 40 nM
Maximum MFI [5]: 8600 MFI
EC50 [6]: 2.25 nM
Maximum MFI [6]: 27900 MFI
B4: PR008016 (antibody, human IgG1, kappa, V domains shown)
VH: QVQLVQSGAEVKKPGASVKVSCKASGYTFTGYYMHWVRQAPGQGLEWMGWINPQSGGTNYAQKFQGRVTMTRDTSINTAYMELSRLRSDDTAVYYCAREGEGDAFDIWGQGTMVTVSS
VL: DFQMTQSPSTLSASVGDRVTITCRASQSISSWLAWYQQKPGKAPKLLIYEASSLKSGVPSRFSGSESGTEFTLTISSLQPDDFATYYCHQYMSYSTFGQGTKVEIKR
notes: PTM variant of PR006931 (VH:N54Q, S60Y); human IgG1

EC50 [1]: 8.48 nM
Maximum MFI [1]: 33700 MFI
EC50 [2]: 40 nM
Maximum MFI [2]: 9450 MFI
EC50 [3]: 6.25 nM
Maximum MFI [3]: 152000 MFI
B5: PR006931 (antibody, human IgG1, kappa, V domains shown)
VH: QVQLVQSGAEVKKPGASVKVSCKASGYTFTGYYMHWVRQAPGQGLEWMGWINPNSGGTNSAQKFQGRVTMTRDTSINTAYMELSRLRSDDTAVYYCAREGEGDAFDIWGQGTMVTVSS
VL: DFQMTQSPSTLSASVGDRVTITCRASQSISSWLAWYQQKPGKAPKLLIYEASSLKSGVPSRFSGSESGTEFTLTISSLQPDDFATYYCHQYNSYSTFGQGTKVEIKR
notes: Fully human recombinant IgG1, kappa; also called 171B2D12

EC50 [9]: 4.9 nM
Maximum MFI [9]: 44300 MFI
EC50 [10]: 4.31 nM
Maximum MFI [10]: 24900 MFI
EC50 [11]: 8.19 nM
Maximum MFI [11]: 22400 MFI
EC50 [12]: 3.73 nM
Maximum MFI [12]: 60500 MFI
B6: PR005433 (antibody, human IgG1, kappa, V domains shown)
VH: EVQLLESGGGLVQPGGSLRLSCAASGFTFSSYAMSWVRQAPGKGLEWVSTLSGRGGSTYYADSVKGRFTISRDNSNNTLYLQMNSLRAEDTAVYYCAKEGYSSSYYEYFQHWGQGTLVTVSS
VL: EIVLTQSPATLSVSPGERATLSCRASQSISSNLAWYQQKPGQAPRLLIYGASTRATGIPARFSGSGSGTEFTLTISSLQSEDFAVYSCQQYNYWPLTFGGGTKVEIKR
notes: as for B8
